Results taken from the supplement of paper PMC9170038.

System: MS2 coat protein
Assay: apparent KD of MS2 coat protein; designed switch direction (-1 OFF switch, 1 ON switch): -1; higher = weaker reporter binding
Method in brief: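 Normalised cluster fluorescence was curve-fitted, and each design's median over clusters is its apparent KD. Before this, SNAP-549-labelled MS2 coat protein was titrated from 0.7 or 1.5 nM, doubling to 3 µM, over RNA switches transcribed on Illumina chips by stalled E. coli RNA polymerase. Titrations had no input, 200 uM small-molecule ligand, or an oligonucleotide input, and steps lasted 0.8–1.5 h (lowest) to 10–20 min (highest).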

[1] = Eterna round: R95, input ligand: FMN 200 uM
[2] = Eterna round: R95, input ligand: microRNA oligo, concentration not stated
[3] = Eterna round: R95, input ligand: none
[4] = input ligand: microRNA oligo, concentration not stated

Sequence | apparent KD of MS2 coat protein [1] [nM] | apparent KD of MS2 coat protein [2] [nM] | apparent KD of MS2 coat protein [3] [nM] | apparent KD of MS2 coat protein (input ligand: FMN 200 uM) [nM] | apparent KD of MS2 coat protein (input ligand: none) [nM] | apparent KD of MS2 coat protein [4] [nM]
AGAAAGCAAGGAUAUACAAAGAAACGACCGAAAGAAAAGAAACAUGAGGAUCACCCAUGUAGAAGGUGCAAGAA [JR_Exclu2_Sub031] (puzzle: Exclusion 2) | 19 | 12.8 | 17.7 |  |  | 
UGAUCACAUGAGGAUCACCCAUGUCAGGAUAUCUACAUUGAAGCCUCGGCUUCAAUGUAGAGAAGGGAUAUAAU [E1/5-B2] (Eterna round: R97, puzzle: Exclusion 1) |  |  |  | 189 | 86.8 | 
AAAAAACAUGAGGAUCACCCAUGUCAGGAUAUCCGAAAAGAAAAGAAAAAGAAAAAAGGGAGAAGGGACAAAAA [April's ex-date #2] (puzzle: Exclusion 1) | 50.5 | 42 | 33 |  |  | 
AAAGUUGCCUACGGUGUGCACAUGAGGAUCACCCAUGUACCUCCAUGGCAGUGCCAAUAAUUAUGCUCGUCACUACA [Eternabot (L1) Solution 18] (Eterna round: R97, puzzle: Sensor, turn-off variant 1) |  |  |  | 14.9 | 14.2 | 
CCCUAGUAUGUAGGAUAUCGGUCAGUUUCUGAUCGAGAAGGACAUGAGGAUCACCCAUGUAAAACGUCCGGUUUCUGGAUAGGG [JL ENG1 3.56] (Eterna round: R96, puzzle: Exclusion NG 1) |  |  |  | 73.2 | 24.6 | 17
AACGUGUAAGGAUAUGCUGCUCGUCACGAAAGUGAUGAGUAGCAGAAGGUACAUGAGGAUCACCCAUGUAAAGA [Exclusion 4.1f (Exclusion4-cac2 - changed GC at 6/50 to AU )] (Eterna round: R96, puzzle: Exclusion 4) |  |  |  | 91.6 | 22.2 | 19
ACAAGCUUUUUGCAUCAAGCAUUAAAGUCUGUGAUCGUAACAUGAGGAUCACCCAUGUAAGUUUUAUGUCGUCUUAU [JR_SV3TOV2_Sub097] (puzzle: Sensor v3, turn-off variant 2) | 39.7 | 48.3 | 41.1 |  |  | 
ACAAGCUUGUAAUGAUAGAACAUGAGGAUCACCCAUGUAAAUGGAAGAACCAAUUGGAUAAGAUAAACUCGUCUUAU [JR_STOV1_Sub003] (Eterna round: R97, puzzle: Sensor, turn-off variant 1) |  |  |  | 114 | 127 | 
AAUAAUAAAGUCAGGAUAUCUAGAGCCUCGGCUCUAGAGAAGGGACAUGAGGAUCACCCAUGUCACUCAAUAAU [BmEx4/3-D2] (Eterna round: R97, puzzle: Brourd's mod of Exclusion 4) |  |  |  | 20.2 | 17.7 | 
AGUAACCGUCACGAAAGUGAUGGUUACACAAGUGUAAUAACAUGAGGAUCACCCAUGUCCUCAUUUGCUCGUUUUAU [Sensor 3 - 37] (puzzle: Sensor v3, turn-off variant 2) | 45.1 | 144 | 140 |  |  | 
CCAAGCUGUGUGAGGAUAUGCUGGUCCUUGGAUCAGCAGAAGGCACAUGAGGAUCACCCAUGUGAAAAGCUUGG [Mat - Exclusion 4 - JL Mod - D92] (puzzle: Brourd's mod of Exclusion 4) |  | 13.8 |  |  |  | 
UCUGCCGCUGUGAGGAUAUGCCCAAAUAAAAGCGGGCAGAAGGCACAUGAGGAUCACCCAUGUCCUGCGGUUUU [salish99_bmx4_r4_143] (Eterna round: R97, puzzle: Brourd's mod of Exclusion 4) |  |  |  | 180 | 28.8 | 
GGUCGACAUGAGGAUCACCCAUGUCAGGAUAUCGUCACUGGAGCUUCGGCUCCAGUGACGAGAAGGGACAUAAU [E1/14-A1] (Eterna round: R97, puzzle: Exclusion 1) |  |  |  | 39.5 | 39.2 | 
UUGUUACAUGAGGAUCACCCAUGUGAGGAUAUGGUUCAGUACUGUCAUGUCACGUACUCCAGAAGGCACAUGUU [1st #31] (Eterna round: R97, puzzle: Exclusion 1) |  |  |  | 363 | 120 | 
CCAUGUUAGCAGGAUAUGCAAUUAUUCUUUUAAGCAGAAGGGCUUACAUGAGGAUCACCCAUGUAACAUUUCAU [JR_E6_Sub081] (puzzle: Exclusion 6) |  | 17.3 |  |  |  | 
CCAGAGUGAGGAUAUGCAUAAAGGUGCUGUCCCGUGGCUUGACAUGAGGAUCACCCAUGUAGAAGGUGCGUUGU [Raonra] (puzzle: Exclusion 2) |  | 38.7 |  |  |  | 
AUAAAACAUGAGGAUCACCCAUGUCAGGAUAUACGAUUCCACCCUAACUGCGUGGAACGUAGAAGGGACAUAGG [Exclusion 1 (MOD6 Esqu)] (Eterna round: R97, puzzle: Exclusion 1) |  |  |  | 62.7 | 76.4 | 

Sequence | apparent KD of MS2 coat protein [1] [nM] | apparent KD of MS2 coat protein [2] [nM] | apparent KD of MS2 coat protein [3] [nM] | apparent KD of MS2 coat protein (input ligand: FMN 200 uM) [nM] | apparent KD of MS2 coat protein (input ligand: none) [nM] | apparent KD of MS2 coat protein [4] [nM]
GCAGGAUAAGUGAGGAUAUACCUCUGGAUACAGAGGUAGAAGGCACAUGAGGAUCACCCAUGUCUAUCACCUGC [Fiskers BMX 4 - 78] (puzzle: Brourd's mod of Exclusion 4) |  | 14.5 |  |  |  | 
GGUCAAGAACAGAUCCGCGCUGUCAUUGACCGCUCAUUUACAUGAGGAUCACCCAUGUUUUUUGCUUGUCUUGUUAC [Edrama] (puzzle: Sensor v3, turn-off variant 2) | 19.6 | 88.3 | 18.2 |  |  | 
CUGGAGUCAGGAUAUGACGCAGUCCGCCCAAGUGGCGGAAAUCAGAAGGGACUUGAGGAUCACCCAAGUAAAAG [Resorama] (Eterna round: R97, puzzle: Exclusion 4) |  |  |  | 26.8 | 29.8 | 
UGGGUACUCCAUAGAAGAAACAUGAGGAUCACCCAUGUAGGGCAAGUUUUUUGCUCGUCAUAGGUUGAGGGAUUGGA [JR_SV3TOV1_Sub016] (puzzle: Sensor v3, turn-off variant 1) | 685 | 343 | 978 |  |  | 
GCGCGCUAAGGAUAUACAUGAGGAUCACCCAUGUGCGCGCAAAAGCGCCGCGCGCGCGGUAGAAGGUAGGCAAA [Extraordinary-Exclusion 3] (Eterna round: R97, puzzle: Exclusion 3) |  |  |  | 16 | 11.4 | 
UGUCAGAUGGUAGGAUAUCCAUAUCGAGUGACCCUUUCUUAACAUGAGGAUCACCCAUGUCGGUGGGAGAAGGGCCGUAUGGUG [salish99_ExNG02_R04_032] (Eterna round: R96, puzzle: Exclusion NG 2) |  |  |  | 31.4 | 29.9 | 24
UCGGGCUCAGAGGAUAUGGGCGAAAAUAUAAAACCAGAAGGCUGAACUUGAGGAUCACCCAAGUACGGGCAAAA [Inxeridi] (Eterna round: R97, puzzle: Exclusion 6) |  |  |  | 143 | 67.9 | 
AGUACUAACACGUCGGUGUUAGUACAAUAAGCUUGUGAAACAUGAGGAUCACCCAUGUCCUCAUAAGCUCGUCUUAU [salish99_TOv2_r3_080] (Eterna round: R96, puzzle: Sensor v3, turn-off variant 2) |  |  |  | 16.4 | 17.8 | 492
AUACUCGUUGUGAGGAUAUCGUUUUCGUCACGGAUCGAGAAGGCACAUGAGGAUCACCCAUGUUUGACGUGAAU [JR_BMOE4_Sub092] (puzzle: Brourd's mod of Exclusion 4) |  | 15.4 |  |  |  | 
GCACGGUGAGGAUAUAUAAAUGGGCAUGUCGAGAACCGUUCACAUGAGGAUCACCCAUGUAGAAGGCGCCUGUG [Eternabot (L2) Solution 58] (Eterna round: R97, puzzle: Exclusion 2) |  |  |  | 115 | 49 | 
AAAAGAAGUGUUAGGAUAUGUGUAAGUAGAAAGACACAGAAGGAACAUGAGGAUCACCCAUGUGGCCAAAGAAC [Vesotila] (puzzle: Brourd's mod of Exclusion 4) | 38.7 | 14.1 | 13.6 |  |  | 
UUAAAUCAUGUAGGAUAUGCGUGGCGAAGCUAUGCAGAAGGACAUGAGGAUCACCCAUGUGCUUGCGUCUGCGUACAGAUGCUA [JL ENG1 1.12] (Eterna round: R96, puzzle: Exclusion NG 1) |  |  |  | 112 | 63.7 | 52.8
UGAGCAUGAGGAUAUACAAGGCGACCGUGAGGUCGAGGUUUACAUGAGGAUCACCCAUGUAGAAGGCAUGUUCU [jl-ex2-4.07] (Eterna round: R97, puzzle: Exclusion 2) |  |  |  | 40.2 | 20 | 
GUGGAACAUGAGGAUCACCCAUGUGAGGAUAUGUGUGAAUAGAGGAGAAGAAGAGAGAACAGAAGGCACGGAGG [JR_Exclu1_Sub066] (puzzle: Exclusion 1) | 53.3 | 73.4 | 93.3 |  |  | 
UGCGGUUGAGGAUAUACGUAGAACUAGGUUCAUGUAAAACUACAUGAGGAUCACCCAUGUAGAAGGCAAUCGCU [Mat - Exclusion 2 - JL Mod - D41] (Eterna round: R97, puzzle: Exclusion 2) |  |  |  | 23.9 | 20.3 | 
CAUUAUUAUCGAGGAUAUCCUAUUGAAAUUCUAGGAGAAGGCGGACUCAACAUGAGGAUCACCCAUGUGGGACGGAUGCUAGGG [Ex NG1 #29] (Eterna round: R96, puzzle: Exclusion NG 1) |  |  |  | 15.9 | 17.8 | 19.6
AAAAGGUGAGGAUAUUCGGCGCCGGGAAGGUUGGUGCGGAUGAAGAAGGCACAUGAGGAUCACCCAUGUAAUAA [Excls4-I] (puzzle: Exclusion 4) |  | 43.5 |  |  |  | 
